Source: paper PMC6588460

Molecular target: AKAP95 (human (endogenous in HEK293T)) (UniProt O43823)
Assay: proximity ligation

Sequence of UniProt O43823 (O43823 whole entry): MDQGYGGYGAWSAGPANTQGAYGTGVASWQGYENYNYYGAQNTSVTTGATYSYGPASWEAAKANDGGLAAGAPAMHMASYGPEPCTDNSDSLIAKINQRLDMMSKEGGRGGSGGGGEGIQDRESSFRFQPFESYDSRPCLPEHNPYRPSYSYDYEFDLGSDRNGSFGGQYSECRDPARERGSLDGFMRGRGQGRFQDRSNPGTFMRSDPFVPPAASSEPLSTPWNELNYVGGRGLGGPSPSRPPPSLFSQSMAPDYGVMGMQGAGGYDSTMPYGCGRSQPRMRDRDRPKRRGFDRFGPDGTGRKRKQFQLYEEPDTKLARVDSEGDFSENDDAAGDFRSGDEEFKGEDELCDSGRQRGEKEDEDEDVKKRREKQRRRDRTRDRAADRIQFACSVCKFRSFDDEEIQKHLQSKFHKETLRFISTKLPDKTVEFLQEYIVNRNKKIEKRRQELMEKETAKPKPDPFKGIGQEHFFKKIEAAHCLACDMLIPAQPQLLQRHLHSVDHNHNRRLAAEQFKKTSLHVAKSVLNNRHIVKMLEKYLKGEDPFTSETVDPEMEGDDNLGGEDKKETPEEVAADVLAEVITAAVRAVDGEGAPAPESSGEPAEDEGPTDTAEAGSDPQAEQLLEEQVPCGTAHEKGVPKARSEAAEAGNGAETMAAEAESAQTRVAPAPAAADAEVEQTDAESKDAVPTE

## PDE4D5 (enzyme)
  PLA dots per nuclei (dots per nuclei): 3.8
